Positions count from the first letter of the chain named. Numbers in names are those of the source.

To fix the notation:
B1: dBBDu183H S62W / dBBDu072L (antibody, name in Kabat numbering, V domains shown)
VH: QVQLVESGGGLVQPGRSLRLSCAASGFTFSNAWMHWVRQAPGKGLEWVAQIKDKGNAYAAYYAPWVKGRFTISRDDSKNSIYLQMNSLKTEDTAVYYCHYVHYASASTVLPAFGVDAWGQGTTVTVSS
VL: DIVMTQSPLSLPVTPGEPASISCQASQELVHMNRNTYLHWYQQKPGQAPRLLIYKVSNRFPGVPDRFSGSGSGTDFTLKISRVEAEDVGVYYCAQGTSVPFTFGQGTKLEIK
notes: as m1, one VH change
B2: dBBDu183H S99T / dBBDu072L (antibody, name in Kabat numbering, V domains shown)
VH: B1 VH with W65S, S105T
VL: B1 VL
notes: as m1, one VH change
B3: dBBDu183H S99H / dBBDu072L (antibody, name in Kabat numbering, V domains shown)
VH: B1 VH with W65S, S105H
VL: B1 VL
notes: as m1, one VH change
B4: dBBDu183H V63E / dBBDu072L (antibody, name in Kabat numbering, V domains shown)
VH: B1 VH with W65S, V66E
VL: B1 VL
notes: as m1, one VH change
B5: dBBDu183H V63G / dBBDu072L (antibody, name in Kabat numbering, V domains shown)
VH: B1 VH with W65S, V66G
VL: B1 VL
notes: as m1, one VH change
B6: dBBDu183H S99Y / dBBDu072L (antibody, name in Kabat numbering, V domains shown)
VH: B1 VH with W65S, S105Y
VL: B1 VL
notes: as m1, one VH change
B7: dBBDu183H V63F / dBBDu072L (antibody, name in Kabat numbering, V domains shown)
VH: B1 VH with W65S, V66F
VL: B1 VL
notes: as m1, one VH change
B8: dBBDu183H S99Q / dBBDu072L (antibody, name in Kabat numbering, V domains shown)
VH: B1 VH with W65S, S105Q
VL: B1 VL
notes: as m1, one VH change
B9: dBBDu183H V63H / dBBDu072L (antibody, name in Kabat numbering, V domains shown)
VH: B1 VH with W65S, V66H
VL: B1 VL
notes: as m1, one VH change
B10: dBBDu183H S99R / dBBDu072L (antibody, name in Kabat numbering, V domains shown)
VH: B1 VH with W65S, S105R
VL: B1 VL
notes: as m1, one VH change
B11: dBBDu183H T100bN / dBBDu072L (antibody, name in Kabat numbering, V domains shown)
VH: B1 VH with W65S, T108N
VL: B1 VL
notes: as m1, one VH change
B12: dBBDu183H T100bQ / dBBDu072L (antibody, name in Kabat numbering, V domains shown)
VH: B1 VH with W65S, T108Q
VL: B1 VL
notes: as m1, one VH change
B13: dBBDu183H S99G / dBBDu072L (antibody, name in Kabat numbering, V domains shown)
VH: B1 VH with W65S, S105G
VL: B1 VL
notes: as m1, one VH change
B14: dBBDu183H S99K / dBBDu072L (antibody, name in Kabat numbering, V domains shown)
VH: B1 VH with W65S, S105K
VL: B1 VL
notes: as m1, one VH change
B15: dBBDu183H V63D / dBBDu072L (antibody, name in Kabat numbering, V domains shown)
VH: B1 VH with W65S, V66D
VL: B1 VL
notes: as m1, one VH change
B16: dBBDu183H S62Y / dBBDu072L (antibody, name in Kabat numbering, V domains shown)
VH: B1 VH with W65Y
VL: B1 VL
notes: as m1, one VH change
B17: dBBDu183H T100bS / dBBDu072L (antibody, name in Kabat numbering, V domains shown)
VH: B1 VH with W65S, T108S
VL: B1 VL
notes: as m1, one VH change

The target of the test is T1, Human CD137 ECD (human).
T1 construct: also called 4-1BB
T1 sequence (chain, as listed by the source limits assumed): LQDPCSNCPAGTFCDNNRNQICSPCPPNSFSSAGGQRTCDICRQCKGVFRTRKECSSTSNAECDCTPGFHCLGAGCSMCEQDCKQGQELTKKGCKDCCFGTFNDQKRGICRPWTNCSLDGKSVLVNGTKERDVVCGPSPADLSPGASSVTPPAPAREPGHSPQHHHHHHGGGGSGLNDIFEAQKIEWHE
Briefly: SPR, vs parent H183/L072. Background: Surface plasmon resonance follows binding to a sensor surface in real time, without labels.
As to B1, the “fold change of affinity” value was 0.8 fold. Next, B2: 0.6 fold; B3: 1.5 fold. The figure for B4 is 0.9 fold; for B5 it is 1.3 fold; for B6 it is 0.5 fold. The figure for B7 is 0.9 fold. B8: the “fold change of affinity” value was 0.6 fold. The figure for B9 is 1 fold; for B10 it is 1.1 fold. Next, B11: 0.1 fold; B12: 0.3 fold; B13: 1 fold. In the case of B14, the “fold change of affinity” value worked out at 1.2 fold. Next, B15: 0.9 fold. The figure for B16 is 0.7 fold; for B17 it is 1 fold.

The values are drawn from patent publication US20210388087A1 (Chugai, published 2021).
